How the values were obtained:
[1] = biological target: GST-EPLIN-α (recombinant full-length EPLIN-α GST-fusion protein) (UniProt Q9UHB6); assay: pull-down
F-actin = F-actin (UniProt P68135); assay: co-sedimentation

Sequence of his-EPLIN-α (Q9UHB6 161-759): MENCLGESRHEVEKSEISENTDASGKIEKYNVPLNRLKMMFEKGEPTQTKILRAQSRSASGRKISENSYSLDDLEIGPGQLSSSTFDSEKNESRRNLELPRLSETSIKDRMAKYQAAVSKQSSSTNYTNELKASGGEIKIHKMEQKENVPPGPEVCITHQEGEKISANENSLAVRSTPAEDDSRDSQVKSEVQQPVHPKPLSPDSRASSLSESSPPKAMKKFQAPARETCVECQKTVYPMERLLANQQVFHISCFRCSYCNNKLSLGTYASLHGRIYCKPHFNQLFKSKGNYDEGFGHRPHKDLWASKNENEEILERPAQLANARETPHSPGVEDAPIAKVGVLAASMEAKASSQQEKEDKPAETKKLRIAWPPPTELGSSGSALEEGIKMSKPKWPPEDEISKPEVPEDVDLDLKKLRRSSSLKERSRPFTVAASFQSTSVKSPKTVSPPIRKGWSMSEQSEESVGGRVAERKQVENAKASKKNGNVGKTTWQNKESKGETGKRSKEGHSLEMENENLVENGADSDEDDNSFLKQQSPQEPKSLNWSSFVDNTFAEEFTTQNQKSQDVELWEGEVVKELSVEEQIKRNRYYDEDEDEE
Sequence of GST-EPLIN-α (recombinant full-length EPLIN-α GST-fusion protein) (Q9UHB6 161-759): as above

Row | Substance | percent of actin monomers pelleted [1] [%] | Kd (F-actin) [nM] | stoichiometry N (actin molecules per his-EPLIN-α) (F-actin)
1 | G-actin (from UniProt P68135 1-377) (natural protein) | 10 | – | –
2 | his-EPLIN-α (from UniProt Q9UHB6-2 1-599) (natural protein) | – | 100 | 2

Reference: paper PMC2172667
